Data from PMC11341838 (Nature Communications, 2024).

Target: T1, Pf3D7 recombinant AMA1, full ectodomain (domain I, II and III) (P. falciparum (strain 3D7))
T1 chain: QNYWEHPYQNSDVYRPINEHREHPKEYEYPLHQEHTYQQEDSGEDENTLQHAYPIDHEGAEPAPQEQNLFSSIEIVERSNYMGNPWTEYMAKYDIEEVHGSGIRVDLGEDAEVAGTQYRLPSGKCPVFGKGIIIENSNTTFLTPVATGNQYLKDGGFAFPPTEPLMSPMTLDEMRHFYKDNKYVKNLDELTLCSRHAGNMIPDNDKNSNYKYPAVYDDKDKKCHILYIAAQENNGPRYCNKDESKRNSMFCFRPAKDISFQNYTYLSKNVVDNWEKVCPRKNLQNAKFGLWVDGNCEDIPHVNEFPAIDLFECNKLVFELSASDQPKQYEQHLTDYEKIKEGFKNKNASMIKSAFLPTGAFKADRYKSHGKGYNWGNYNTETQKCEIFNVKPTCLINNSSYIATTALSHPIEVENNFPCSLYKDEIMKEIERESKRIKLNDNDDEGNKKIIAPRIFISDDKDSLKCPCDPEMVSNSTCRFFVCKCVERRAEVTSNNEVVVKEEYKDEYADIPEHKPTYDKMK
Experiment: ELISA

binding result: binds
B1: mAb 1F9 (antibody, V domains shown)
VH: EVQLQQSGAELLKPGASVKLSCIVSGFKIKDTSMHWVKQRPEQGLEWIGRIDPANDNSEYDPKFQGKATITADTSSNTAYLQLSSLTSEDTAVYYCTLSHFWGQGTTLTVSS
VL: SIVMTQTPKFLPVSAGDRVTIICKASQSVSNDVVWYQQKPGQSPKLLIYYASIRYTGVPDRFTGSGYGTDFTFTISTVQVEDLAVYFCQQGFSSPRTFGGGTKLEIN
